Results on 1 molecule are retold here after patent US20140120106A1, “Stimulation of Arterial Collateral Growth and Lymphogenesis” (YALE UNIVERSITY, priority 2011, published 2014).

The assay addresses T1, HA-tagged human Raf1 S259A (human, UniProt P04049 1-648).
T1 construct: Overexpressed in HUVEC by lentivirus, immunoprecipitated from Triton lysates with anti-HA; also called Raf1SA; RAF1 Ser259 to Ala259 mutant; not shown: HA (hemagglutinin) tag
As to the kind of experiment: co-immunoprecipitation (anti-HA) from lentivirus-infected HUVEC lysates, western blot. On the technique in general: In western blotting, separated proteins are transferred to a membrane and probed.

B1: 14-3-3 (other, human, UniProt P63104 1-245, looked up)
chain: MDKNELVQKAKLAEQAERYDDMAACMKSVTEQGAELSNEERNLLSVAYKNVVGARRSSWRVVSSIEQKTEGAEKKQQMAREYREKIETELRDICNDVLSLLEKFLIPNASQAESKVFYLKMKGDYYRYLAEVAAGDDKKGIVDQSQQAYQEAFEISKKEMQPTHPIRLGLALNFSVFYYEILNSPEKACSLAKTAFDEAIAELDTLSEESYKDSTLIMQLLRDNLTLWTSDTQGDEAEAGEGGEN
notes: The results speak only of '14-3-3'; the zeta isoform is inferred from the antibody list; Endogenous protein in the cell lysate; also called 14-3-3 protein; 14-3-3ζ
For the molecule B1, the binding result is listed as “no binding”.
